The source of these data is patent publication US20220306762A1.

For experiment [1], the target named is CD38 on Daudi target cells (UniProt P28907). Kind of experiment: cell-based or functional assay.
Experiment [2] concerns the target His-tagged human CD38 (ACRO Biosystems cat #CD8-H5224) (human) (UniProt P28907). The experiment is described as follows: SPR (Carterra LSA), His-CD38 analyte.
The target in experiment [3] is His-tagged human CD38 (ACRO Biosystems CD8-H5224) (human) (UniProt P28907). Kind of experiment: SPR (second run), His-tagged CD38.
Experiment [4] deals with His-tagged human CD38 (ACRO Biosystems cat #CD8-H5224) (human) (UniProt P28907). The experiment is described as follows: SPR (Carterra LSA), antibody captured by anti-human Fc, His-tagged CD38 injected.

In experiment [1], Daratumumab (benchmark) (antibody) gave an ADCC EC50 of 68.2 ng/mL, a Lowest Remaining Target % of 57%, a Max RLU of 2.47e+06 RLU and a PBMC ADCC EC50 of 0.0983 ng/mL.

The substance Isa Benchmark (antibody) had a Kd in experiment [2] of 2.69 nM. This substance also had a Kd in experiment [3] of 5.8 nM. Also, in experiment [1], the ADCC EC50 came to 12.3 ng/mL, the Max RLU was found to be 3.16e+06 RLU and the PBMC ADCC EC50 was found to be 0.0406 ng/mL. The Kd in experiment [4] came out at 5.8 nM.

Dara Benchmark (antibody): in experiment [3], the dissociation constant (Kd) amounted to 37.1 nM. In other words, the double-digit nanomolar range.

A word on the Kd: it is the free concentration of one partner at which half of the binding sites on the other are occupied at equilibrium, for simple one-to-one binding.
